For this data set, the target named is dCas9*_HNH-L88 (ZFP fusion) (Streptococcus pyogenes / synthetic). Put plainly: cell_activity; E. coli; maximum reached at optimal 6 bp spacer; about a third of unmodified dCas9. Conditions: dCas9(R1335K), HNH deleted, 88 aa linker, C-terminal Zif268TS3. Here is the method: A reporter system was developed to evaluate the impact of these modifications on the ability for dCas9 to repress the targeted promoter (FIGS. 13A-13F). The expression of the sgRNA and dCas9 are controlled using IPTG- and aTc-inducible promoters, respectively. All of these components are integrated into a single p15A plasmid backbone. The fold-repression is measured as the fluorescence from the output promoter in the absence of sgRNA inducer (0 mM IPTG), divided by the fluorescence when the sgRNA is expressed (1 mM IPTG). When the R1335K mutation is made (dCas9*), this completely abolishes repression as expected (FIG. 1C).
The ability for a zinc finger protein (ZFP) to recover nuclease activity was first tested. To this end, a variant of dCas9* described previously was built, where Zif268^TS3 is fused to the C-terminal end of dCas9* via a 58 amino acid linker (Bolukbasi M. F., et al., Nat. Methods, 2015 December; 12(12): 1150-56). The corresponding 12 bp operator recognized by Zif268^Ts3 was then placed upstream of the promoter, separated from the −35 position by a spacer (all promoter variants described are provided in TABLE 3). The orientation of the operator (forward and reverse) was initially tested with the forward yielding higher repression as previously observed (Bolukbasi M. F., et al., Nat. Methods, 2015 December; 12(12): 1150-56). […]

B1: sgRNA9 ; pZFP_S6 promoter (ssRNA ; dsDNA)
RNA: AUAAUACCCGUGUGACCCGUGUUUUAGAGCUAGAAAUAGCAAGUUAAAAUAAGGCUAGUCCGUUAUCAACUUGAAAAAGUGGCACCGAGUCGGUGCUUUUUUU
DNA 1: TCCGAATGACATGCGTCTCCGGTGTTGGAGCGACAGCCTTTACACCAACGGGTCACACGGGTATTATGCTAGC
DNA 2: GCTAGCATAATACCCGTGTGACCCGTTGGTGTAAAGGCTGTCGCTCCAACACCGGAGACGCATGTCATTCGGA
Regarding B1, the activity stood at 28 fold repression.

These data come from patent US20200095589, “ENGINEERED DCAS9 WITH REDUCED TOXICITY AND ITS USE IN GENETIC CIRCUITS” (Massachusetts Institute of Technology, published 2020).
